What was measured:
[1] = target: LH receptors on bovine granulosa cells and bovine small luteal cells (bovine) (UniProt Q28005); test: cell-based or functional assay
[2] = target: T1, GnRH receptor of rat pituitary membranes (rat) (UniProt P30969); test: radioligand displacement on rat pituitary membranes, equimolar concentrations
T1 sequence (looked up): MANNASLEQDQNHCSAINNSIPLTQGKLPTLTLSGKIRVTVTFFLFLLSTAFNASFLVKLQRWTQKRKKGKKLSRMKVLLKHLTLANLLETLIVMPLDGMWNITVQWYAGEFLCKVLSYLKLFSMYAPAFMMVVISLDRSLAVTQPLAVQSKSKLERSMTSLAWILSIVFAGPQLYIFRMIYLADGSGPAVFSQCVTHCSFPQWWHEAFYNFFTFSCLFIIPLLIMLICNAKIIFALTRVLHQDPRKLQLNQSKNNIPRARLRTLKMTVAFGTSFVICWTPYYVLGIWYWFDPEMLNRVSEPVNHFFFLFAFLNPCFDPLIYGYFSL

UniProt Q28005, sequence (Q28005 27-701): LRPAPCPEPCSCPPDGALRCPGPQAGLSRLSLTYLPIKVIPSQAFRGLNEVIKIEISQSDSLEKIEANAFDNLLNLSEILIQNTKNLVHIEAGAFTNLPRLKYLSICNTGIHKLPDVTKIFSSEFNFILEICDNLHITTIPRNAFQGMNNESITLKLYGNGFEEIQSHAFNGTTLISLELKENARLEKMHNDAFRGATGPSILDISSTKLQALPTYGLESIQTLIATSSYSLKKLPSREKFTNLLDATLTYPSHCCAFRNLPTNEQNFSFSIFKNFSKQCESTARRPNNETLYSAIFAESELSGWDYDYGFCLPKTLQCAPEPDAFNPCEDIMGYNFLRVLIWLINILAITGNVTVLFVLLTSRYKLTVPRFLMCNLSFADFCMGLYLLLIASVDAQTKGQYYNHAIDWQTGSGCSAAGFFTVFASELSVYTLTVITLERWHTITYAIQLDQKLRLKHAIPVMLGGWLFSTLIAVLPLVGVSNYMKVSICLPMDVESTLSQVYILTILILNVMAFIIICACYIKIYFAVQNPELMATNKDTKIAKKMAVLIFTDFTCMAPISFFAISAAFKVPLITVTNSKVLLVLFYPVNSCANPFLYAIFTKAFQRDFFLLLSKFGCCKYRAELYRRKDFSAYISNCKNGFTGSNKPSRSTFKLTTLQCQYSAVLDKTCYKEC

| Substance | cell killing of bovine small luteal cells after 22 hr (Trypan Blue exclusion) (fold vs hecate alone) [1] | cpm displaced relative to native GnRH [2] |
| --- | --- | --- |
| hecate-bLH conjugate (peptide) | 2 | – |
| D-Lys6GnRH (peptide) | – | 187% |
